The source of these data is IntAct's records for PubMed 16272220.

One assay deals with T1, trx1_yeast TRX1 (UniProt P22217).
T1 sequence: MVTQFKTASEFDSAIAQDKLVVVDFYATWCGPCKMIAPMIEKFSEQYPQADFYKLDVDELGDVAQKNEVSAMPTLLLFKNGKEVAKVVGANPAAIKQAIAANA

A further assay deals with T2, trx2_yeast TRX2 (UniProt P22803).
T2 sequence: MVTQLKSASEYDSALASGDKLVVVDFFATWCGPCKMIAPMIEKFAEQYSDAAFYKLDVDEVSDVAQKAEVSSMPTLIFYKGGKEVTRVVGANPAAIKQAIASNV

Take “Phosphoadenosine phosphosulfate reductase (Saccharomyces cerevisiae) (from UniProt P18408) C245S”: the “effect of a mutation on the interaction” value with trx1_yeast TRX1 and in the assay with trx2_yeast TRX2 was “decreasing interaction” throughout.
